Data published in article PMC3327287.
Where two headings read alike, the source gives them in different places.

Legend:
[1] = molecular target: F-actin (actin purified from chicken breast muscle) (chicken) (UniProt P68139); assay: co-sedimentation
[2] = molecular target: F-actin (actin purified from chicken breast muscle) (chicken) (UniProt P68139); assay: co-sedimentation; remark: listed apart in the source

Q: Which results are given for “N-ethylmaleimide (NEM) modified skeletal muscle myosin subfragment 1 (S1) (domain or fragment)”?
A: percent of NEM-S1 left in the supernatant (not bound) [1]: 20%; percent of NEM-S1 left in the supernatant (not bound) [2]: 20%
